The target of experiment [1] is Noregen, recombinant norrin-derived growth factor (human) (UniProt Q00604). Put plainly: AUC.
The target is the same in experiment [2]. In words: intact LC/ES-MS.

Chain of Noregen, recombinant norrin-derived growth factor (Q00604 25-133): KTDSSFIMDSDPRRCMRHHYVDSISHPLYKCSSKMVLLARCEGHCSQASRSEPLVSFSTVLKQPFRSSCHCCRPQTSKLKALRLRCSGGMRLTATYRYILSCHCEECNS

Take “Noregen, recombinant norrin-derived growth factor (from UniProt Q00604 25-133) (ligand)”: in experiment [1], the percent of total content in the dimer peak was 99.9% and the stoichiometry N came to 2. In experiment [2], the percent present as dimer came to 98% and the stoichiometry N came out at 2.

One may read the stoichiometry N as the number of molecules, sites or subunits per partner or assembly.

The record behind these values is doi:10.1101/2025.10.15.682582.
